# Measured values published in patent US20260035452A1 (THE UNIVERSITY OF BIRMINGHAM, priority 2022, published 2026).
# Marks after values point to notes of the source that are not given here.
# Key:
# [1] = tested on: patients; conditions: cited from earlier work
# [2] = Haematological investigations; assay type: in vivo; conditions: mice, 100 μg/mouse
# Protocol: To assess the neutralising activity of Ab-IPL-IL-17™, CD-1 mice were injected i.p. with 100 μg/mouse of Ab-IPL-IL-17™, MAB421 or secukinumab as positive controls. After 30 min, an i.p. injection of 10 μg/mouse of IL-17A, IL-17F or IL-17A/F heterodimer was administered. After 2 h blood was collected by intracardiac puncture and serum levels of (A) IL-17A, (B) IL-17F or (C) IL-17A/F heterodimer were quantified by Elisa. (C-F) For the evaluation of immunogenic effects CD-1 mice were injected i.p. with 100 μg of IgG1 isotype antibody (vehicle) or IL-17 neutralising antibodies (bimekizumab, secukinumab, MAB421 or Ab-IPL-IL-17™). In the selected time-point (2 h, 24 h, 72 h, 7 days, 14 days and 21 days) total IgG, IgG1, lymphocytes and platelets levels were determined by Elisa and haematological blood count test, respectively. Data are presented as mean±S.D. for n=5 mice per group. Statistical analysis was conducted by one or two-way ANOVA followed by Bonferroni's for multiple comparisons. *P≤0.05, **P≤0.01, ***P≤0.001 vs IL-17 group; ^#P≤0.05, ^##P≤0.01, ^###P≤0.001, ^####P≤0.0001 vs vehicle group.
# (§1) Standard laboratory procedures were used for blood sampling and measurements (95). Haematological investigations, for all experimental conditions, including blood count test, leukocyte, and sidereal formula were performed on citrated and not-anticoagulated blood samples, respectively. Serological tests were performed by CELL-DYN Sapphire purchased from Abbott S.R.L. (Milan, Italy). All procedures were conducted under strictly aseptic conditions.
# as §1, with “measurements.” for “measurements (95).”
substance,measurement,setting,value
brodalumab: licensed mAb in the IL-17-IL-17R pathway,side effect: intestinal inflammation,[1]; patients with IBD,enhanced intestinal inflammation
same,side effect: suicidal thoughts,[1]; some patients with psoriasis,suicidal thoughts in some patients with psoriasis
Bimekizumab: IL-17 neutralising antibody (reference),GRA (Granulocytes),[2]; 2 h,0.24 ± 0.11 10^3/μL
same,HCT (Hematocrit),[2]; 2 h,29.96 ± 2.29%
same,HGB (Hemoglobin),[2]; 2 h,9.88 ± 1.02 g/dL
same,MCH (Mean Corpuscular Hemoglobin),[2]; 2 h,16.98 ± 1.38 pg
same,MCV (Mean Cell Volume),[2]; 2 h,61.22 ± 5.70 fL
same,MHCH,[2]; 2 h,30.00 ± 3.06 g/dL
same,MID,[2]; 2 h,0.36 ± 0.24 10^3/μL
same,MPV (Mean Platelet Volume),[2]; 2 h,4.64 ± 0.86 fL
same,PCT (Plateletcrit),[2]; 2 h,0.26 ± 0.07%
same,PWD (Platelet Distribution Width),[2]; 2 h,16.80 ± 1.42%
same,RBC (Red Blood Cells),[2]; 2 h,5.84 ± 1.62 10^6/μL
same,RDW (Red blood cells Distribution Width),[2]; 2 h,18.82 ± 1.75%
same,WBC (White Blood Cells),[2]; 2 h,3.90 ± 0.91 10^3/μL
same,GRA (Granulocytes),[2]; 24 h,0.22 ± 0.16 10^3/μL
same,HCT (Hematocrit),[2]; 24 h,29.56 ± 2.16%
same,HGB (Hemoglobin),[2]; 24 h,9.08 ± 1.55 g/dL
same,MCH (Mean Corpuscular Hemoglobin),[2]; 24 h,18.92 ± 1.42 pg
same,MCV (Mean Cell Volume),[2]; 24 h,62.32 ± 10.33 fL
same,MHCH,[2]; 24 h,30.70 ± 3.18 g/dL
same,MID,[2]; 24 h,0.42 ± 0.31 10^3/μL
same,MPV (Mean Platelet Volume),[2]; 24 h,5.00 ± 1.12 fL
same,PCT (Plateletcrit),[2]; 24 h,0.26 ± 0.06%
same,PWD (Platelet Distribution Width),[2]; 24 h,16.04 ± 1.30%
same,RBC (Red Blood Cells),[2]; 24 h,4.63 ± 0.99 10^6/μL
same,RDW (Red blood cells Distribution Width),[2]; 24 h,18.42 ± 1.18%
same,WBC (White Blood Cells),[2]; 24 h,4.60 ± 1.70 10^3/μL
same,GRA (Granulocytes),[2]; 72 h,0.30 ± 0.10 10^3/μL
same,HCT (Hematocrit),[2]; 72 h,22.04 ± 4.37** %
same,HGB (Hemoglobin),[2]; 72 h,7.10 ± 1.38* g/dL
same,MCH (Mean Corpuscular Hemoglobin),[2]; 72 h,21.46 ± 2.04* pg
same,MCV (Mean Cell Volume),[2]; 72 h,80.98 ± 9.17 fL
same,MHCH,[2]; 72 h,30.62 ± 5.57 g/dL
same,MID,[2]; 72 h,0.42 ± 0.22 10^3/μL
same,MPV (Mean Platelet Volume),[2]; 72 h,7.96 ± 1.95**** fL
same,PCT (Plateletcrit),[2]; 72 h,0.17 ± 0.03%
same,PWD (Platelet Distribution Width),[2]; 72 h,17.94 ± 2.99%
same,RBC (Red Blood Cells),[2]; 72 h,3.79 ± 1.02* 10^6/μL
same,RDW (Red blood cells Distribution Width),[2]; 72 h,17.12 ± 2.05%
same,WBC (White Blood Cells),[2]; 72 h,4.84 ± 2.49 10^3/μL
same,GRA (Granulocytes),[2]; 7 d,0.26 ± 0.11 10^3/μL
same,HCT (Hematocrit),[2]; 7 d,22.48 ± 3.74* %
same,HGB (Hemoglobin),[2]; 7 d,8.10 ± 1.33 g/dL
same,MCH (Mean Corpuscular Hemoglobin),[2]; 7 d,21.22 ± 3.74 pg
same,MCV (Mean Cell Volume),[2]; 7 d,72.78 ± 8.77 fL
same,MHCH,[2]; 7 d,29.36 ± 5.05 g/dL
same,MID,[2]; 7 d,0.46 ± 0.18 10^3/μL
same,MPV (Mean Platelet Volume),[2]; 7 d,6.78 ± 1.09* fL
same,PCT (Plateletcrit),[2]; 7 d,0.22 ± 0.07%
same,PWD (Platelet Distribution Width),[2]; 7 d,16.04 ± 2.71%
same,RBC (Red Blood Cells),[2]; 7 d,4.18 ± 0.93 10^6/μL
same,RDW (Red blood cells Distribution Width),[2]; 7 d,18.14 ± 3.00%
same,WBC (White Blood Cells),[2]; 7 d,5.08 ± 1.37 10^3/μL
same,GRA (Granulocytes),[2]; 14 d,0.20 ± 0.12 10^3/μL
same,HCT (Hematocrit),[2]; 14 d,28.36 ± 3.19%
same,HGB (Hemoglobin),[2]; 14 d,9.06 ± 1.84 g/dL
same,MCH (Mean Corpuscular Hemoglobin),[2]; 14 d,17.48 ± 1.38 pg
same,MCV (Mean Cell Volume),[2]; 14 d,61.10 ± 9.83 fL
same,MHCH,[2]; 14 d,29.96 ± 4.45 g/dL
same,MID,[2]; 14 d,0.40 ± 0.10 10^3/μL
same,MPV (Mean Platelet Volume),[2]; 14 d,5.66 ± 0.92 fL
same,PCT (Plateletcrit),[2]; 14 d,0.26 ± 0.05%
same,PWD (Platelet Distribution Width),[2]; 14 d,16.02 ± 1.63%
same,RBC (Red Blood Cells),[2]; 14 d,5.81 ± 1.41 10^6/μL
same,RDW (Red blood cells Distribution Width),[2]; 14 d,18.26 ± 2.28%
same,WBC (White Blood Cells),[2]; 14 d,3.00 ± 0.68 10^3/μL
same,GRA (Granulocytes),[2]; 21 d,0.22 ± 0.13 10^3/μL
same,HCT (Hematocrit),[2]; 21 d,29.20 ± 2.70%
same,HGB (Hemoglobin),[2]; 21 d,10.06 ± 1.27 g/dL
same,MCH (Mean Corpuscular Hemoglobin),[2]; 21 d,17.96 ± 1.57 pg
same,MCV (Mean Cell Volume),[2]; 21 d,62.92 ± 6.53 fL
same,MHCH,[2]; 21 d,30.50 ± 4.52 g/dL
same,MID,[2]; 21 d,0.32 ± 0.16 10^3/μL
same,MPV (Mean Platelet Volume),[2]; 21 d,5.02 ± 0.76 fL
same,PCT (Plateletcrit),[2]; 21 d,0.28 ± 0.03%
same,PWD (Platelet Distribution Width),[2]; 21 d,16.24 ± 1.83%
same,RBC (Red Blood Cells),[2]; 21 d,6.37 ± 1.11 10^6/μL
same,RDW (Red blood cells Distribution Width),[2]; 21 d,18.02 ± 1.34%
same,WBC (White Blood Cells),[2]; 21 d,3.32 ± 1.18 10^3/μL
